Reference: patent US11827911B2, “Chimeric bacteriophage lysin with activity against Staphylococci bacteria” (priority 2008, dated 2023)

Tests used:
[1] = test system: S. aureus strains (MSSA and MRSA); assay: Muralytic activity on bacterial strains, Set I; type: cell-based, Staphylococcus aureus; settings: 50 U of ClyS, 15 minutes
Method: (§1) Muralytic activity of ClyS was tested on a number of bacterial strains representing a variety of species which were divided into sets (Table 1 and FIG. 10). Set I consisted of S. aureus strains including methicillin-sensitive S. aureus (MSSA) and MRSA. ClyS was active against MSSA and MRSA although differences were observed between S. aureus strains. Set II consisted of different species of staphylococci including S. epidermidis, S. simulans and S. sciuri. […] Set III consisted of a mix of Gram-positive and Gram-negative bacteria including representatives of group A, B, C and E streptococci, oral streptococcal species including S. gordonli, and S. salivarius, as well as S. uberis, Bacillus cereus, Pseudomonas aeruginosa and E. coli.
(§2) The viability assay of ClyS was tested as previously described (Nelson et al, 2001). Briefly, log phase cultures of S. aureus strain 8325-4 were resuspended in PB to OD600 of 0.8-1.0. 50 U of ClyS or the corresponding volume of PB was added to bacterial cells and aliquots were removed, serially diluted, and plated at 1, 5, 10, 30, and 60 minutes to assess the viability of the treated and control cells. All experiments were performed in triplicate. The activity of ClyS on various bacterial strains was tested as described previously (Schuch et al, 2002). Briefly, log phase bacterial cells were treated with 50 U of ClyS at 37° C. for 15 minutes. […]

[2] = test system: S. aureus; assay: Lytic assays of chimeric lysins against S. aureus; type: cell-based, Staphylococcus aureus; settings: for lytic/killing activity against S. aureus: qualitative
Excerpt: For this, the endopeptidase domain in Twort lysin (14) was used to construct chimera AD 119 (SEQ ID NO:3). […] To overcome low expression of AD 127 construct, the entire chimera gene was cloned into expression vector pJML6 to generate pAD 138.

[3] = test system: S. aureus strain 8325-4; assay: Viability assay (colony-forming units); type: cell-based, Staphylococcus aureus; settings: 50 U of ClyS, in 30 min
Method: The unit activity of ClyS was defined by measuring the spectrophotometric loss of turbidity, indicative of cell lysis, of S. aureus 8325-4 cells upon adding serial dilutions of ClyS. In our assays, 5 micrograms of ClyS corresponded to 1 U of lytic activity. When 50 U of ClyS was added to exponentially growing 8325-4 cells the OD600 dropped to baseline within 5 min (FIG. 7). To confirm that the observed cell lysis corresponds to cell death, staphylococcal viability was determined by enumerating aliquots from the lytic reaction at various time points.
The viability assay of ClyS was tested as previously described (Nelson et al, 2001). Briefly, log phase cultures of S. aureus strain 8325-4 were resuspended in PB to OD600 of 0.8-1.0. 50 U of ClyS or the corresponding volume of PB was added to bacterial cells and aliquots were removed, serially diluted, and plated at 1, 5, 10, 30, and 60 minutes to assess the viability of the treated and control cells. All experiments were performed in triplicate. The activity of ClyS on various bacterial strains was tested as described previously (Schuch et al, 2002). Briefly, log phase bacterial cells were treated with 50 U of ClyS at 37° C. for 15 minutes. The samples were serially diluted and plated. Control experiments with the addition of phosphate buffer (pH 7.0) were performed under the same conditions.

[4] = test system: group A, B, C and E streptococci, S. gordonli, S. salivarius, S. uberis, Bacillus cereus, Pseudomonas aeruginosa and E. coli; assay: Muralytic activity on bacterial strains, Set III; type: cell-based, mix of Gram-positive and Gram-negative bacteria; settings: 50 U of ClyS, 15 minutes
Method: as §1, §2

[5] = test system: MRSA strain COL; assay: Checkerboard broth-microdilution assay; type: cell-based, Staphylococcus aureus
Excerpt: (§3) We used the checkerboard broth-microdilution assay to test the interaction of ClyS with vancomycin and with oxacillin. […] Isobolograms for ClyS with vancomycin and ClyS with oxacillin was plotted by transcribing the enzyme concentrations along the inhibitory line on the microtiter plate in an x/y plot.

[6] = test system: VISA strain Mu50; assay: Checkerboard broth-microdilution assay; type: cell-based, Staphylococcus aureus; settings: VISA strain Mu50
Excerpt: as §3

[7] = test system: S. aureus strain 8325-4; assay: ClyS activity as a function of pH and salt concentration; type: cell-based, Staphylococcus aureus; settings: 50 U, 15 minutes
Method: The effect of pH on ClyS activity was determined as previously described using the universal buffer system pH 4-10 (Yoong et al). Briefly, log phase 8325-4 cells were resuspended in the universal buffer system and incubated with 50 U of ClyS for 15 minutes. The final pH of each reaction was checked by pH paper. The samples were serially diluted and plated. In controls, PB replaced ClyS.
Similarly the effect of salt concentration on the lytic activity of ClyS was determined by incubating 50 U of ClyS with log phase 8325-4 cells in PB containing NaCl at a final concentration of 25-500 mM for 15 minutes. The samples were serially diluted and plated to determine the viability counts.

[8] = Solubility of expressed lysins and chimeras
Method: In another embodiment, the lysin is a chimeric protein that comprises an endopeptidase domain of the S. aureus Twort lysin upstream of the phiNM3 CWT domain (SEQ ID NO:1). The chimeric polypeptide is preferably sufficiently soluble in phosphate buffered saline (PBS). Preferred levels of solubility in PBS for the chimeric lysins is at least about 1 mg/ml and more preferably at least about 3 mg/mL. in PBS. […] One example of such a lysin is provided in SEQ ID NO:2 (AD127), shown in FIG. 5A and consisting of the Twort lysin endopeptidase domain attached to the phiNM3 CWT domain (SEQ ID NO:1). The isolated polypeptide of SEQ ID NO:2 (AD 127) was constructed by engineering S. epidermidis autolysin amidase and Twort lysin endopeptidase domains upstream of phiNM3 CWT domain, respectively.
Traditionally, Bacillus-specific lysins are expressed at high levels and are soluble in E. coli. Therefore, our first attempt was to engineer a 16-amino acid peptide (4) that is conserved in several S. aureus-specific lysins (Lu J Z, Fujiwara T, Komatsuzawa H, Sugai M, Sakon J. 2006. Cell wall-targeting domain of glycylglycine endopeptidase distinguishes among peptidoglycan cross-bridges. (Lue et al. (2006) J. Biol. Chem. 281(1):549-58) The catalytic domain of the Bacillus-specific lysin PlyB was used to generate chimera AD 103 (FIG. 4) (SEQ ID NO: 13). The chimeras were tested for expression, solubility and activity. Then the entire C-terminal CWT domain of PlyB (6) was replaced by the putative C-terminal domain of S. aureus phage Twort lysin (8) to obtain AD 105 (SEQ ID NO: 14). […] Since the lysostaphin catalytic domain […] (10) in AD 112 was of bacterial origin, we attempted to engineer a phage-derived catalytic domain upstream of the lysostaphin CWT. For this, the endopeptidase domain in Twort lysin (14) was used to construct chimera AD 119 (SEQ ID NO:3).

B1: ClyS: chimeric lysin: Twort lysin endopeptidase domain attached to the phiNM3 CWT domain, 280 amino acid residues (protein)
chain: METLKQAESYIKSKVNTGTDFDGLYGYQCMDLAVDYIYHVTDGKIRMWGNAKDAINNSFGGTATVYKNYPAFRPKYGDVVVWTTGNFATYGHIAIVTNPDPYGDLQYVTVLEQNWNGNGIYKTELATIRTHDYTGITHFIRPNFATESSVKKKDTKKKPKPSNRDGLNKDKIVYDRTNINYNMVLQGKSASKITVGSKAPYNLKWSKGAYFNAKIDGLGATSATRYGDNRTNYRFDVGQAVYAPGTLIYVFEIIDGWCRIYWNNHNEWIWHERLIVKEVF
modifications: Chimeric of Staphylococcus aureus bacteriophage Twort domain and Staphylococcus aureus phage phiNM3 CWT domain
notes: chimeric lysin: Twort lysin endopeptidase domain attached to the phiNM3 CWT domain, 280 amino acid residues
muralytic activity against MRSA [1]: active | muralytic activity against MSSA [1]: active | activity ([2]; AD 127 from the pAD138 construct): very high | lytic/killing activity against S. aureus ([2]; listed as AD 127): very high activity | lytic/killing activity against S. aureus ([2]; listed as AD127): little or no killing activity | decrease in viability [3]: approximately 3 logs | muralytic activity against Set III organisms [4]: no activity | MIC [5]: 8 U/ml | MIC [6]: 6 U/ml | activity at physiological pH [7]: partial yet significant activity | activity at physiological salt concentrations [7]: functioned well | NaCl concentration above which activity deteriorated ([7]; 25-500 mM NaCl in PB): above 400 mM | solubility [8]: very high
